58 variants from the supplement of paper PMC10201428 can be followed below.

The chains are these.
B1: library; a variant is named by its letters at N, in order (parent)
chain: AATGTTGTTGATGCAACCATAAAGTGATATTTAATAATTATTTATAATCAGCAACTTAACCACAAAACAACCATATATTGATATNTCACAAAACAACCATAANTTGATATTTTTGTGAATCGAGTATTTCAGCAAAACTACTGCAGTAAGAA

Variants of B1 are the subject of data set [1]. Briefly: relative integration efficiency (T-LR orientation) vs wild-type transposon end (log2 (normalized fold change)); transposon end mutated: left end; higher = more efficient transposition. Conditions: with VchCAST RNA-guided transposition machinery (E. coli BL21(DE3) host, lacZ target). The protocol:
(§1)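 Pooled, barcoded VchCAST (Tn6677) mini-transposon donor libraries; each variable transposon-end sequence sits in a fixed pDonor mini-transposon context (10-bp barcode and cargo not included). Left- or right-end libraries were co-transformed with pEffector (TniQ-Cascade, TnsABC, lacZ crRNA, T7, 0.1 mM IPTG) into E. coli BL21(DE3) and grown 18 h at 37 C. T-LR and T-RL junction amplicons were sequenced; output/input barcode fold change was normalised to the mean of four wild-type barcodes and log2-transformed. Two biological replicates; zero-count/undetected variants carry floor values (-10 / -15), censored here. Barcode uncoupling by PCR recombination adds noise.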

In data set [2] the parent is B1. The data set can be described thus: relative integration efficiency (T-RL orientation) vs wild-type transposon end (log2 (normalized fold change)); transposon end mutated: left end; higher = more efficient transposition. The following applies: with VchCAST RNA-guided transposition machinery (E. coli BL21(DE3) host, lacZ target). The protocol:
as §1

± gives the standard deviation of the averaged measurements.

CG A34C T35C A36G T38C A40G T42C A44G T45C A46C A53C A62G A65G A66C: the “relative integration efficiency (log2)” value in data set [1] was -1.83 ± 0.73; in data set [2], -1.68 ± 0.71.
Consider TA G24A T30A T76A A77G C87T A96C T110A T113A, for which the figures for the “relative integration efficiency (log2)” value in data set [1] and in data set [2] were 0.553 ± 0.26 and 0.0249 ± 0.25, respectively.
For CA T104A T110A T113A, the “relative integration efficiency (log2)” value was -0.182 ± 0.39 in data set [1] and -0.656 ± 0.2 in data set [2].
On to TA T76A A77G C87T T104A T110A T113A, for which the “relative integration efficiency (log2)” value in data set [1] was 0.28 ± 0.36; in data set [2], -0.703 ± 0.35.
Consider CG A2C T3G, for which the “relative integration efficiency (log2)” value in data set [1] is 0.286 ± 0.049; in data set [2] it was -0.0688 ± 0.0099.
Regarding CG A23C G24T T25G G26T, the results for the “relative integration efficiency (log2)” value in data set [1] and in data set [2] were -1.99 ± 0.63 and -1.12 ± 0.49, respectively.
CG A1C A2C T3G G4T: the entries for the “relative integration efficiency (log2)” value in data set [1] and in data set [2] were -0.0427 ± 0.68 and -0.346 ± 0.11, respectively.
For CG A36G T42C A62G A65G A66C, the “relative integration efficiency (log2)” value in data set [1] was -0.297 ± 0.32; in data set [2] it was -0.575 ± 0.29.
Take CA G24A T30A T104A T110A T113A: the “relative integration efficiency (log2)” value was -0.0948 ± 0.19 in data set [1] and -0.387 ± 0.2 in data set [2].
CG A33C A34C: the “relative integration efficiency (log2)” value was -0.259 ± 0.42 in data set [1] and 0.167 ± 0.0038 in data set [2].
For CC T104A T105A G106C, the “relative integration efficiency (log2)” value was -2.2109 ± 0.0012 in data set [1] and -1.71 ± 0.67 in data set [2].
For the variant CG A36C A37C T38G T39G, the results for the “relative integration efficiency (log2)” value in data set [1] and in data set [2] were -0.25 ± 0.0025 and -0.22 ± 0.14, respectively.
As to CG A15T A69T A95T, the “relative integration efficiency (log2)” value is -1.55 ± 0.76 in data set [1] and -1.31 ± 0.47 in data set [2].
Regarding CG A34C T35G T39C T41A T45A G51T C52A A53G A54G C60T A62G C63A, the entries for the “relative integration efficiency (log2)” value in data set [1] and in data set [2] were 0.531 ± 0.51 and -0.0678 ± 0.088, respectively.
Turning to CG A22T, the “relative integration efficiency (log2)” value in data set [1] was 0.128 ± 0.29; in data set [2] it was 0.0984 ± 0.17.
The matching figures for CG A22C: -1.26 ± 0.71 and -1.07 ± 0.48.
For CG A22G, in that order: -1.1 ± 1.1 and -0.733 ± 0.88.
Consider TA A70C T76A T86G A96C T110A T113A, for which the “relative integration efficiency (log2)” value is -0.0134 ± 0.035 in data set [1] and -0.255 ± 0.15 in data set [2].
For CG A21T A75T A101T, in that order: -1.38 ± 0.99 and -1.31 ± 0.37.
As for CG A33T, the figures for the “relative integration efficiency (log2)” value in data set [1] and in data set [2] were 0.232 ± 0.46 and 0.135 ± 0.21, respectively.
Take CG A33C: the “relative integration efficiency (log2)” value in data set [1] is 0.29 ± 0.052; in data set [2], 0.172 ± 0.082.
In the case of CG A33G, the figures for the “relative integration efficiency (log2)” value in data set [1] and in data set [2] were 0.00747 ± 0.0001 and 0.292 ± 0.074, respectively.
In the case of TG, the figures for the “relative integration efficiency (log2)” value in data set [1] and in data set [2] were 0.322 ± 0.57 and 0.126 ± 0.046, respectively.
As for CG A19T T20A, the results for the “relative integration efficiency (log2)” value in data set [1] and in data set [2] were -0.844 ± 0.51 and -1.12 ± 0.56, respectively.
On to TA G24A T30A A70C T76A T86G T104G T113A, for which the “relative integration efficiency (log2)” value in data set [1] was -0.0684 ± 0.51; in data set [2], -0.533 ± 0.11.
For CC A22T A23T G24C T76A A77T T78A A102T T104A, in that order: -0.143 ± 0.92 and -0.196 ± 0.36.
As to CG A29C T30G T31G T32G, the “relative integration efficiency (log2)” value in data set [1] was -0.555 ± 0.56; in data set [2], -0.723 ± 0.61.
For CG A29T T30A T31A T32A, the “relative integration efficiency (log2)” value in data set [1] is -0.245 ± 0.11; in data set [2], -0.49 ± 0.46.
TG A23G G24T A33T T76A A77G C87T: the “relative integration efficiency (log2)” value in data set [1] was 0.312 ± 0.44; in data set [2], -0.26 ± 0.39.
In the case of GG, the “relative integration efficiency (log2)” value in data set [1] is -0.397 ± 0.89; in data set [2] it was -0.0172 ± 0.13.
Regarding CG A21C A22C, the entries for the “relative integration efficiency (log2)” value in data set [1] and in data set [2] were -1.77 ± 0.64 and -1.82 ± 0.43, respectively.
As to TA G24A T30A T76A T78A T84A C87A A96C T110A T113A, the “relative integration efficiency (log2)” value in data set [1] worked out at 0.0142 ± 0.25; in data set [2], 0.0999 ± 0.18.
For the variant TG A23G G24T A33T T76A T78G C87A, the figures for the “relative integration efficiency (log2)” value in data set [1] and in data set [2] were 0.632 ± 0.11 and 0.16 ± 0.09, respectively.
For the variant TA A70C T76A T86G T104G T113A, the entries for the “relative integration efficiency (log2)” value in data set [1] and in data set [2] were 0.359 ± 0.88 and -0.145 ± 0.22, respectively.
In the case of CG A2C T3G G4T T5G, the “relative integration efficiency (log2)” value was -0.014 ± 0.12 in data set [1] and -0.514 ± 0.095 in data set [2].
On to CG A34T T35A, for which the “relative integration efficiency (log2)” value in data set [1] turned out to be 0.192 ± 0.25; in data set [2], 0.209 ± 0.033.
Take TA T76A T78G C87A A102T T111C T113C: the “relative integration efficiency (log2)” value was -0.0555 ± 0.34 in data set [1] and -0.0993 ± 0.033 in data set [2].
As for TA G24A T30A T76A A77G C87T A96C T112G T113C, the “relative integration efficiency (log2)” value in data set [1] was -0.263 ± 0.26; in data set [2] it was 0.0641 ± 0.26.
On to TG A16C G24T T32G A33C A70C T76A T86G, for which the “relative integration efficiency (log2)” value in data set [1] is -0.468 ± 0.42; in data set [2] it was -0.731 ± 0.36.
With TA G24A T30A T76A T78A T84A C87A T104A T110A T113A, the “relative integration efficiency (log2)” value in data set [1] was found to be 0.184 ± 0.12; in data set [2] it was 0.0385 ± 0.19.
For CG A34C T35G A36C A37C, in that order: 0.532 ± 0.072 and 0.175 ± 0.24.
As to CG A11T T12A G13C C14G, the entries for the “relative integration efficiency (log2)” value in data set [1] and in data set [2] were -2.81 ± 1.2 and -0.558 ± 0.43, respectively.
For TA T76A T78G C87A T104A T110A T113A, the “relative integration efficiency (log2)” value is 0.215 ± 0.49 in data set [1] and -0.291 ± 0.22 in data set [2].
Take TG A16C G24T T30A T76A T78A T84A C87A: the results for the “relative integration efficiency (log2)” value in data set [1] and in data set [2] were 0.0694 ± 0.32 and 0.372 ± 0.36, respectively.
On to CG A22C A23C G24T T25G, for which the “relative integration efficiency (log2)” value is -2.32 ± 0.92 in data set [1] and -2.89 ± 0.82 in data set [2].
The matching figures for CG A23T G24C: 0.111 ± 0.07 and -0.0468 ± 0.13.
Regarding TG A23G G24T A33T A70C T76A T86G, the “relative integration efficiency (log2)” value in data set [1] is -0.0695 ± 0.1; in data set [2], -0.149 ± 0.11.
In the case of CG A1T A2T, the “relative integration efficiency (log2)” value turned out to be 0.429 ± 0.098 in data set [1] and 0.223 ± 0.059 in data set [2].
The matching figures for CG A2T T3A: 0.399 ± 0.43 and 0.191 ± 0.092.
Regarding CC A102T T104A T105A, the “relative integration efficiency (log2)” value is -0.708 ± 0.07 in data set [1] and -0.322 ± 0.48 in data set [2].
Consider TA A70C T76A T86G A102T T111C T113C, for which the “relative integration efficiency (log2)” value in data set [1] was -0.561 ± 0.29; in data set [2], -0.418 ± 0.19.
As to TA A70C T76A T84A C87A A96C T110A T113A, the “relative integration efficiency (log2)” value was determined as 0.233 ± 0.15 in data set [1] and 0.0312 ± 0.25 in data set [2].
For the variant TG A22T G24T T31C A33C T76A T78G C87A, the “relative integration efficiency (log2)” value in data set [1] was determined as 1.14 ± 0.4; in data set [2], 0.463 ± 0.49.
Turning to CA A96C T112G T113C, the figures for the “relative integration efficiency (log2)” value in data set [1] and in data set [2] were -0.564 ± 0.17 and -0.326 ± 0.1, respectively.
With CG A15T A16T, the “relative integration efficiency (log2)” value in data set [1] was -0.556 ± 0.6; in data set [2], -0.219 ± 0.36.
The matching figures for CG A11C: 0.113 ± 0.091 and -0.401 ± 0.34.
For the variant CG A11G, the “relative integration efficiency (log2)” value was -0.67 ± 0.84 in data set [1] and 0.0387 ± 0.29 in data set [2].
Regarding CG A11T, the “relative integration efficiency (log2)” value in data set [1] is -0.735 ± 0.14; in data set [2], -0.00672 ± 0.034.
